# From patent publication US20140296146A1, “Thermostable Inhibitors of Activation of the Blood Clotting System Through Contact with Foreign Surfaces” (Synapse B.V., priority 2011, published 2014)
# Residue numbers refer to the chain shown, from its start. Values joined by “and” are separate entries in the source; they are usually repeats but may differ in a detail not shown here. Identical values can stand only once. Bridges are numbered along the chain shown (N, C = ends). Where no end group is shown, it is not given here.
# B1: TICA 3 (peptide)
# peptide: HEERVCPRILMKCKKDSDCLAECVCLEHGYCG
# notes: Synthetic congener; also called HEE-TICA1
# B2: TICA 5 (peptide)
# peptide: B1 peptide with R8K, K12E, V24I
# notes: Synthetic congener; also called HEE-TICA4
# Assays:
# [1] = TICA1 Ala-scan with intact disulfides, activity vs TICA1; conditions: single amino acid substituted by alanine
# Description: Every single amino acid was substituted by alanine except for cysteine. […] See also FIG. 6.
# [2] = biological target: T1, h-FXIIa (human, UniProt P00748 20-615); assay: S2302 hydrolysis by h-FXIIa, fit of residual activity
# T1 construct: also called factor XIIa
# T1 sequence (looked up): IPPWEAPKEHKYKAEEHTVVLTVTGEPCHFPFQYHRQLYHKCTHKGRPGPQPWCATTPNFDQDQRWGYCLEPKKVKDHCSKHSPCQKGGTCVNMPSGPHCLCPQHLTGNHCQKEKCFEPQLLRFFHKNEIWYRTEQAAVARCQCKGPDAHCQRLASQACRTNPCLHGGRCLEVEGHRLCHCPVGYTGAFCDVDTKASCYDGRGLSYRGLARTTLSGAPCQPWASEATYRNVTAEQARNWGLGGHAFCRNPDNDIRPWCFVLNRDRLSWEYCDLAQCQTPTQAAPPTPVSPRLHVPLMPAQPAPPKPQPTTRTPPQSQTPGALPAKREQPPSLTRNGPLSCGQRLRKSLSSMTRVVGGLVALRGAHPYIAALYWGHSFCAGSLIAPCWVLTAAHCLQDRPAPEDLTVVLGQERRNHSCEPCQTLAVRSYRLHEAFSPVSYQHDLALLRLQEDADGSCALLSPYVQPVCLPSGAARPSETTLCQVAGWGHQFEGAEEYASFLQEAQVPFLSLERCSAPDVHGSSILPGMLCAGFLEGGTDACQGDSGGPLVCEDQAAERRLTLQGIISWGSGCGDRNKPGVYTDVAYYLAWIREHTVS
# Procedure: (§1) Stock FXIIa was diluted 700× in BSA5. The inhibitor was diluted in BSA5 as indicated. Wells contained 70 μl diluted FXIIa (5 nM final), 70 μl inhibitor and 20 μl S2302 (475 or 462.5 μM final). The reaction was started after 5 min heating on the heating plate with S2302. Filters 405 nm and 490 nm reference. Found mΔA/min was multiplied by 2.14 to get the figure for a 1 cm path.
# (§2) in which E=[FXIIa], Ki is the dissociation constant, I=[Inhibitor], kcat and Km are Michaelis constants and S=[S2302].
# [3] = biological target: T1, h-FXIIa; assay: S2302 hydrolysis by h-FXIIa (5.01 nM); inhibitor 30 min 95° C.
# Procedure: as §1, with “ΔmA/min” for “mΔA/min”
# [4] = biological target: T1, h-FXIIa; assay: S2302 hydrolysis by h-FXIIa (5.01 nM); inhibitor kept at -80° C.
# Procedure: as §1, with “ΔmA/min” for “mΔA/min”
# [5] = biological target: T1, h-FXIIa; assay: S2302 hydrolysis by h-FXIIa (5.01 nM); inhibitor at RT during 72 hrs
# Procedure: as §1, with “ΔmA/min” for “mΔA/min”
# [6] = biological target: T1, h-FXIIa; assay: S2302 hydrolysis by h-FXIIa (5.01 nM); inhibitor kept at -80° C. (reference)
# Procedure: as §1, with “ΔmA/min” for “mΔA/min”
# [7] = biological target: T1, h-FXIIa; assay: S2302 hydrolysis by h-FXIIa (5.01 nM); inhibitor 30 min 95° C., against -80° C.
# Procedure: as §1, with “ΔmA/min” for “mΔA/min”
# [8] = biological target: T1, h-FXIIa; assay: S2302 hydrolysis by h-FXIIa (5.01 nM); inhibitor at RT during 72 hrs, against -80° C.
# Procedure: as §1, with “ΔmA/min” for “mΔA/min”
# [9] = biological target: T1, h-FXIIa; assay: S2302 hydrolysis by h-FXIIa (5 nM), fit of residual activity; dissociation constant of the complex
# Procedure: as §1, §2
# [10] = biological target: T1, h-FXIIa; assay: activity of TICA1 disulfide variants against TICA1 with 3 disulfides (FIG. 5); assay not named
# [11] = biological target: T1, h-FXIIa; assay: S2302 hydrolysis by F.XIIa; before heating
# [12] = biological target: T2, h-FXIIa (human), P00748; assay: cell-based or functional assay
# T2 chain: T1 sequence (looked up)
# [13] = biological target: T2, h-FXIIa (human), …; assay: S2302 hydrolysis by h-FXIIa, fit of residual activity
# [14] = biological target: T2, h-FXIIa (human), …; assay: S2302 hydrolysis by h-FXIIa (5.01 nM); inhibitor 30 min 95° C.
# [15] = biological target: T2, h-FXIIa (human), …; assay: S2302 hydrolysis by h-FXIIa (5.01 nM); inhibitor kept at -80° C.
# [16] = biological target: T2, h-FXIIa (human), …; assay: S2302 hydrolysis by h-FXIIa (5.01 nM); inhibitor at RT during 72 hrs
# [17] = biological target: T2, h-FXIIa (human), …; assay: activity of TICA1 disulfide variants (FIG. 5), reference; assay not named
# [18] = biological target: T2, h-FXIIa (human), …; assay: S2302 hydrolysis by h-FXIIa (5.01 nM); inhibitor kept at -80° C. (reference)
# [19] = biological target: T2, h-FXIIa (human), …; assay: S2302 hydrolysis by h-FXIIa (5.01 nM); inhibitor 30 min 95° C., against -80° C.
# [20] = biological target: T2, h-FXIIa (human), …; assay: FXIIa activity, total FXIIa 9.33 nM, 306 nM TICA1 added after 60 minutes at 95° C.
# [21] = biological target: T2, h-FXIIa (human), …; assay: S2302 hydrolysis by h-FXIIa (5.01 nM); inhibitor at RT during 72 hrs, against -80° C.
# [22] = biological target: T2, h-FXIIa (human), …; assay: S2302 hydrolysis by h-FXIIa (5 nM), fit of residual activity; dissociation constant of the complex
# [23] = biological target: T2, h-FXIIa (human), …; assay: residual inhibitor activity after 60 minutes at 95° C., calculated from free FXIIa (total 9.33 nM)
# [24] = biological target: h-FXIIa (human) (UniProt P00748); assay: activity of TICA1 disulfide variants against TICA1 with 3 disulfides (FIG. 5); assay not named
molecule,measurement,setting,value
AVCPRILMKCKKDSDCLAECVCLEHGYCG [TICA1 Ala-scan analogue],Activity vs TICA1,[1],7.5%
RVCARILMKCKKDSDCLAECVCLEHGYCG [TICA1 Ala-scan analogue],Activity vs TICA1,[1],9.0%
RVCPAILMKCKKDSDCLAECVCLEHGYCG [TICA1 Ala-scan analogue],Activity vs TICA1,[1],0.009%
"squash trypsin inhibitor (STI), the serpin from Cucurbita Maxima seeds",Ki,[2],251 nM
same,Ki,[3],264 nM
same,Ki,[4],251 nM
same,Ki,[5],267 nM
same,Res. Act. (%),[6],100%
same,Res. Act. (%),[7],105%
same,Res. Act. (%),[8],106%
same,Ki,[9],251 nM
RVCPRILMKAKKDSDALAECVALEHGYAG (disulfide 3-20) [TICA1 with 1 disulfide bond (C3-C20)],activity (%),[10],0.003%
RVAPRILMKCKKDSDALAEAVCLEHGYAG (disulfide 10-22) [TICA1 with 1 disulfide bond (C10-C22)],activity (%),[10],0.003%
RVAPRILMKAKKDSDCLAEAVALEHGYCG (disulfide 16-28) [TICA1 with 1 disulfide bond (C16-C28)],activity (%),[10],0.006%
"RVCPRILMECKKDSDCLAECVCLEHGYCG (disulfide (positions not given here), Synthetic, folded peptide) [TICA 2]",Ki,[11],0.355 µg/mL and 109 nM
same,Ki,[2],109 nM
same,Ki,[3],108 nM
same,Ki,[4],109 nM
same,Ki,[5],114 nM
same,Res. Act. (%),[6],100%
same,Res. Act. (%),[7],99%
same,Res. Act. (%),[8],105%
same,Ki,[9],109 nM
"RVAPRILMKCKKDSDCLAEAVCLEHGYCG (disulfide 10-22, 16-28) [TICA1 with 2 disulfide bonds (C10-C22, C16-C28)]",activity (%),[10],0.3%
"RVCPKILMECKKDSDCLAECICLEHGYCG (disulfide (positions not given here), Synthetic congener) [TICA 4]",Ki,[11],4.62 µg/mL and 1.42 µM
same,Ki,[2],1420 nM
same,Ki,[3],1340 nM
same,Ki,[4],1420 nM
same,Ki,[5],1400 nM
same,Res. Act. (%),[6],100%
same,Res. Act. (%),[7],94%
same,Res. Act. (%),[8],98%
same,Ki,[9],1420 nM
"RVCPRILMKCKKDSDALAECVCLEHGYAG (disulfide 10-22, 3-20) [TICA1 with 2 disulfide bonds (C3-C20, C10-C22)]",activity (%),[10],0.2%
RVCPRILMKCKKDSDCLAECVCLEHGYCG (modifications not checked) [TICA 1],Activity of FXIIa (mA/min),[12],33.5 mA/min
same,Ki,[13],25.5 nM
same,Ki,[14],24 nM
same,Ki,[15],26 nM
same,Ki,[16],26 nM
same,activity (%),[17],100%
same,Res. Act. (%),[18],100%
same,Res. Act. (%),[19],94%
same,Free FXIIa,[20],3.93 nM
same,Res. Act. (%),[21],102%
same,Ki,[22],25.5 nM
same,Residual activity (%),[23],81.7%
"RVCPRILMKAKKDSDCLAECVALEHGYCG (disulfide 16-28, 3-20) [TICA1 with 2 disulfide bonds (C3-C20, C16-C28)]",activity (%),[24],6.8%
AAARVCPRILMKCKKDSDCLAECVCLEHGYCG (modifications not checked) [AAA-TICA1],Ki,[22],104 nM
B1,Ki,[11],10.1 µg/mL and 3.09 µM
same,Ki,[2],3090 nM
same,Ki,[3],3180 nM
same,Ki,[4],3090 nM
same,Ki,[5],3130 nM
same,Res. Act. (%),[6],100%
same,Res. Act. (%),[7],103%
same,Res. Act. (%),[8],101%
same,Ki,[9],3090 nM
B2,Ki,[11],556 µg/mL and 171 µM
same,Ki,[2],171000 nM
same,Ki,[3],179000 nM
same,Ki,[4],171000 nM
same,Ki,[5],165000 nM
same,Res. Act. (%),[6],100%
same,Res. Act. (%),[7],105%
same,Res. Act. (%),[8],96%
same,Ki,[9],171000 nM
RVCGIGPRPRLPWPRILMKCKKDSDCLAECVCLEHGYCG (modifications not checked) [PCTI],Ki,[22],469000 nM
RVCPRILMKCKKDSDCLAECVCLEHGYCGAAA (modifications not checked) [TICA1-AAA],Ki,[22],377 nM
